Assay results published in patent publication US20220259289A1 (Janssen / Centocor, published 2022).

Columns and labels:
[1] = target: unrelated Fc-fused recombinant protein; assay: ELISA, negative control Fc protein
human serum albumin = target: T1, human serum albumin (human, UniProt P02768 25-609); assay: ELISA, negative control HSA
T1 construct: Negative control of the ELISA; also called HSA
Summary of the method: (§1)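 Biotinylated CD137-Fc, an unrelated Fc-fusion protein or human serum albumin captured 1 h on streptavidin plates blocked in Starting Block T20; diluted bacterial lysate applied 1 h. Bound binders detected with HRP-conjugated anti-Centyrin antibody (PAB25) for 1 h, then POD substrate read-out.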

[2] = target: T2, recombinant biotinylated CD137 protein (Fc-fusion protein, R&D Systems 838-4B) (human, UniProt Q07011 24-186, biotinylated, sites not stated); assay: ELISA, lysate on biotinylated CD137-Fc
T2 construct: Bought Fc fusion; also called CD137-Fc
Summary of the method: as §1

[3] = target: extracellular domain of human CD137 on the surface of CHO-K1 cells (human, UniProt Q07011 24-186); assay: flow cytometry on CHO-K1 cells with human CD137 ECD
Summary of the method: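 Centyrins were serially diluted from 500 nM, precomplexed with 125 nM anti-His mIgG1, and bound to ~100,000 CHO-K1 cells displaying human CD137 ECD. Binding was detected with FITC anti-mouse antibody by flow cytometry, and EC50 was derived by nonlinear regression of MFI versus log concentration.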

[4] = target: T3, recombinant human CD137-Fc-IgG1 (human, UniProt Q07011 24-186, limits assumed); assay: SPR (Biacore T100), CD137-Fc captured by anti human IgG, 1:1 model
T3 construct: Captured by anti human IgG on the Biacore chip
Protocol: For selected FN3 domains, binding to recombinant CD137-Fc was evaluated using surface plasmon resonance (Biacore T100). For each cycle approximately 500 RU of recombinant human CD137-Fc-IgG1 was captured via an anti human IgG immobilized on the surface of a CMS chip. Once CD137-Fc protein was captured, increasing concentrations of Centyrin candidates were injected for 120 s and dissociation was then analyzed for 240 s. A flow cell immobilized with just the anti human IgG1 antibody served as reference flow cell. Kd values were subsequently extrapolated using a 1:1 kinetic binding model (BiaEvaluation software).

[5] = target: human serum albumin (human) (UniProt P02768); assay: ELISA, negative control HSA
human serum albumin (human), sequence (P02768 25-609 limits assumed): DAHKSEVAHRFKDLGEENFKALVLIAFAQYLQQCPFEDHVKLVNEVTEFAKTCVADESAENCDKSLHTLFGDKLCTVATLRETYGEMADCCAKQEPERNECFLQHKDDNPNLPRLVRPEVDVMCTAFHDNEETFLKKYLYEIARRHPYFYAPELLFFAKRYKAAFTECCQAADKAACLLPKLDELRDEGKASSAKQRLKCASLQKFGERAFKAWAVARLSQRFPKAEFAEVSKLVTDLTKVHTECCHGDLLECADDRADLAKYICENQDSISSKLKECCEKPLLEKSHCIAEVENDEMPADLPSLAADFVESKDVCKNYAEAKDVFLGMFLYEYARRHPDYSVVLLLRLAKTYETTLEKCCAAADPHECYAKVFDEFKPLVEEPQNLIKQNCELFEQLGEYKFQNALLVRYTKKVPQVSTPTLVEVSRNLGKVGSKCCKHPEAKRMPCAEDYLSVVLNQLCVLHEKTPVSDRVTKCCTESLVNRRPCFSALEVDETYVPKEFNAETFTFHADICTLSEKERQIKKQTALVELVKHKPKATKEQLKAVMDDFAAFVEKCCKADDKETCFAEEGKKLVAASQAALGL

[6] = target: human serum albumin (human) (UniProt P02768); assay: ELISA, bacterial lysate on plate-bound antigen, luminescence
[7] = target: unrelated Fc-fused recombinant protein (negative control); assay: as above
[8] = target: T4, recombinant biotinylated human CD137 protein (Fc-fusion protein, R&D Systems 838-4B) (human, UniProt Q07011 24-186, biotinylated (site not stated)); assay: as above
T4 construct: Bought Fc fusion; The ELISA used the same antigen as the panning; also called CD137-Fc; biotinylated CD137; not shown: Fc part of the bought fusion protein
Summary of the method: as §1

T1 sequence (P02768 25-609 limits assumed): as above

Binder | ELISA Fc Control (RLU) [1] [RLU] | ELISA HSA (RLU) (human serum albumin) | ELISA CD137 (RLU) [2] [RLU] | EC50 [3] [nM] | Kd [4] [nM] | ELISA HSA (RLU) [5] [RLU] | ELISA HSA (RLU) [6] [RLU] | ELISA Fc Control (RLU) [7] [RLU] | ELISA CD137-Fc (RLU) [8] [RLU]
ISOP193ER9P1A3 (designed binder, not shown: small tags and cut ends) LPAPKNLVVSRVTEDSARLSWTTPDAAFDSFDIYYFEHPVGGEAIVLTVPGSERSYDLTGLKPGTEYLVTIYGVKGGYLSKPLSAIFTT | 3040 | 880 | 1.42e+07 | 10.2 | 8.3 |  |  |  | 
ISOP193ER9P1E1 (designed binder, not shown: small tags and cut ends) LPAPKNLVVSRVTEDSARLSWTAPDAAFDSFDIYYFEHPVGGEAIVLTVPGSERSYDLTGLKPGTEYLVTIYGVKGGSVSIPLSAIFTT | 1200 | 560 | 1.5e+07 | 12.6 | 10.6 |  |  |  | 
ISOP193ER9P1D4 (designed binder, not shown: small tags and cut ends) LPAPKNLVVSRVTEDSARLSWTAPDAAFDSFDIYYFEHPVGGEAIVLTVPGSERSYDLTGLKPGTEYLVTIYGVKGGTYSPPLSAIFTT | 1120 | 480 | 1.6e+07 | 12.9 | 9.55 |  |  |  | 
ISOP193ER9P1C4 (designed binder, not shown: small tags and cut ends) LPAPKNLVVSRVTEDSARLSWTAPDAAFDSFDIYYFEHPVGGEAIVLTVPGSERSYDLTGLKPGTEYLVTIYGVKGGIWSVPLSAIFTT | 960 | 320 | 1.55e+07 | 18.9 | 13.1 |  |  |  | 
ISOP193ER9P1C9 (designed binder, not shown: small tags and cut ends) LPAPKNLVVSRVTEDSARLSWTAPDAAFDSFDIYYFEHPVGGEAIVLTVPGSERSYDLTGLKPGTEYLVTIYGVKGGELSKPLSAISTT | 880 | 560 | 1.43e+07 | 14.1 | 25.1 |  |  |  | 
ISOP193ER9P1G2 (designed binder, not shown: small tags and cut ends) LPAPKNLVVSRVTEDSARLSWTAPDAAFDSFDIYYFEQPVGGEAIVLTVPGSERSYDLTGLKPGTEYLVTIYGVKGGYLSMPLSAIFTT | 1680 | 720 | 7.19e+06 | 22.9 | 65.6 |  |  |  | 
ISOP193ER9P1A4 (designed binder, not shown: small tags and cut ends) LPAPKNLIVSRVTEDSARLSWTAPDAAFDSFEIYYKELRAEGEAIVLTVPGSERSYDLTGLKPGTEYLVTIYGVKGGSVSIPLSAIFTT | 960 | 480 | 9.81e+06 | 27.1 | 117 |  |  |  | 
ISOP193ER9P1E2 (designed binder, not shown: small tags and cut ends) LPAPKNLVVSRVTEDSARLSWTAPDAAFDSFDIYYFEHPVGGEAIVLTVPGSERSYDLTGLKPGTEYLVTIYGVKGGFWSQPLSAIFTT | 1040 | 560 | 1.57e+07 | 15.3 | 10.9 |  |  |  | 
ISOP193ER9P1C10 (designed binder, not shown: small tags and cut ends) LLAPKNLVVSRVTEDSARLSWIAPDAAFDSFEIYYKELRAEGEAIVLTVPGSERSYDLTGLKPGTEYLVTIYGVKGGSVSIPLSAIFTT | 2480 | 560 | 8.87e+06 | 31 | 108 |  |  |  | 
ISOP193ER9P1G9 (designed binder, not shown: small tags and cut ends) LPAPKNLVVSRVTEDSARLSWTAPDAAFDSFDIYYFEHPVGGEAIVLTVPGSERSYDLTGLKPGTEYLVTIYGVKGGNGSSPLSAIFTT | 1280 | 400 | 1.29e+07 | 15.3 | 59.9 |  |  |  | 
ISOP120HR5P1E2 (designed binder, not shown: small tags and cut ends, FN3 domain (Centyrin); tested as E. coli lysate) LPAPKNLVVSHVTEDSARLSWTAPDAAFDSFEIYYLEGGRGEAIVLTVPGSERSYDLTVLKPGTEYLGTIYGVKCGWASNPLSAIFTT |  |  |  |  |  |  | 2880 | 720 | 1.32e+06

Results, then the binder that gave them:

ELISA Fc Control (RLU) [1] [RLU] | ELISA HSA (RLU) (human serum albumin) | ELISA CD137 (RLU) [2] [RLU] | EC50 [3] [nM] | Kd [4] [nM] | ELISA HSA (RLU) [5] [RLU] | ELISA HSA (RLU) [6] [RLU] | ELISA Fc Control (RLU) [7] [RLU] | ELISA CD137-Fc (RLU) [8] [RLU] | Binder
6080 |  | 1.49e+07 |  |  | 2080 |  |  |  | ISOP193HR9P1A5 (designed binder, not shown: small tags and cut ends) LPAPKNLVVSRVTEDSARLSWTAPDAAFDSFDIYYYELRLGGEAIVLTVPGSERSYDLTGLKPGTEYLVTIYGVKGCGYSAPLSAIVTT
20100 |  | 1.13e+07 |  |  | 3040 |  |  |  | ISOP193HR9P1E6 (designed binder, not shown: small tags and cut ends) LPAPKNLVVSRVTEDSARLSWTAPDAAFDSFEIYYAEFGYYGEAIVLTVPGSERSYDLTGLKPGTEYLVTIYGVKGCAASDPLSAIFTT
88300 |  | 1.12e+07 |  |  | 23000 |  |  |  | ISOP193FR9P1H6 (designed binder, not shown: small tags and cut ends) LPAPKNLVVSRVTEDSARLSWTAPDAAFDSFDINYFEQPKGGEAIVLTVPGSERSYDLTGLKPGTEYLVTIYGVKGCDWSDPLSAIFTT
48900 |  | 1.48e+07 |  |  | 12600 |  |  |  | ISOP193HR9P1A7 (designed binder, not shown: small tags and cut ends) LPAPKNLVVSRVTEDSARLSWTAPDAAFDSFDIYYYELRLGGEAIVLTVPGSERSYDLTGLKPGTEYLVTIYGVKVCNASTPLSAIFTT
25000 |  | 1.46e+07 |  |  | 5120 |  |  |  | ISOP193HR9P1A6 (designed binder, not shown: small tags and cut ends) LPAPKNLVVSRVTEDSARLSWTAPDAAFDSFDIYYYELRLGGEAIVLTVPGSERSYDLTGLKPGTEYLVSIYGVKGCGYSDPLSAIFTT
71400 |  | 3.44e+06 |  |  | 10000 |  |  |  | ISOP193HR9P1C7 (designed binder, not shown: small tags and cut ends) LPAPKNLVVSRVTEDSARLSWTAPDAAFDSFEIYYLELDSDGEAIVLTVPGSERSYDLTGLKPGTEYIVTIYGVKVCTGSRPLSAIFTT
13000 |  | 1.64e+07 |  |  | 2240 |  |  |  | ISOP193HR9P1B7 (designed binder, not shown: small tags and cut ends) LPAPKNLVVSRVTEDSARLSWTAPDAAFDSFEIYYFELRLGGEAIVLTVPGSERSYDLTGLKPGTEYLVSIYGVKGCGYSDPLSAIFTT
48700 |  | 1.42e+07 |  |  | 6240 |  |  |  | ISOP193HR9P1D11 (designed binder, not shown: small tags and cut ends) LPAPKNLVVSRVTEDSARLSWTAPDAAFDSFDIYYYELRLGGEAIVLTVPGSERSYDLTGLKPGTEYLVTIYGVKVCEQSYPLSAIFTT
15000 |  | 1.66e+07 |  |  | 4080 |  |  |  | ISOP193HR9P1B11 (designed binder, not shown: small tags and cut ends) LPAPKNLVVSRVTEDSARLSWTAPDAAFDSFEIYYFELRLGGEAIVLTVPGSERSYDLTGLKPGTEYLVTIYGVKGCGYSDPLSAIFTT
10900 |  | 6.27e+06 |  |  | 2640 |  |  |  | ISOP193HR9P1D8 (designed binder, not shown: small tags and cut ends) LPAPKNLVVSRVTEDSARLSWTAPDAAFDSFDIYYLESGRDGEAIVLTVPGSERSYDLTGLKPGTEYLVSIYGVKGCGYSDPLSAIFTT
13100 |  | 9.02e+06 |  |  | 3840 |  |  |  | ISOP193HR9P1E2 (designed binder, not shown: small tags and cut ends) LPAPKNLVVSRVTEDSARLSWTAPDAAFDSFEIYYLEWCSGGEAIVLTVPGSERSYDLTGLKPGTEYLVTIYGVKGCAASDPLSAIFTT
28300 |  | 1.66e+07 |  |  | 4240 |  |  |  | ISOP193HR9P1A11 (designed binder, not shown: small tags and cut ends) LPAPKNLVVSRVTEDSARLSWTAPDAAFDSFEIYYLEGGRGEAIVLTVPGSERSYDLTGLKPGTEYLVTIYGVKCGWASNPLSAIFTT
